Results published in patent publication US11685791B2, “Antibody binding specifically to N-terminal region of lysyl-tRNA synthetase exposed on cell membrane” (Zymedi Co., Ltd., priority 2017, dated 2023).

What was measured:
[1] = system: pulmonary arterial hypertension (PAH) models; assay: Blood pressure and cardiac output in monocrotaline PAH model; format: in vivo, rat; conditions: for CO / LVEDP / LVESP / RVEDP / RVESP: i.v. twice a week, 3 weeks, n = 5
Method: After three weeks, the rats were anesthetized with isoflurane, and measured for blood flow and pressure by using a high-precision pneumatic measurement system (MPVS cardiovascular pressure and volume system, model name: MPVS Ultra, manufacturer: Millar Instruments). The right ventricular end-systolic pressure (RVESP), right ventricular end-diastolic pressure, left ventricular end-systolic pressure, left ventricular end-diastolic pressure were measured using an exclusive catheter (Mikro-Tip rat pressure catheter, manufacturer: Millar Instruments). The cardiac output was measured using a perivascular blood flow probe (Transonic Flow probes, manufacturer: Millar Instruments), and experimental method thereof was performed by the same method as disclosed in the following literature: Pacher P, Nagayama T, Mukhopadhyay P, Batkai S, Kass D A. Measurement of cardiac function using pressure-volume conductance catheter technique in mice and rats. Nat Protoc 2008; 3(9):1422-34.
The models of PAH, which is a disease having a close relation between immune cell invasion and pathological phenomena, were treated with N3 IgG antibody (1 mpk or 10 mpk) for 3 weeks (i.v., twice a week), and then measured for right ventricular end-systolic pressure (RVESP), right ventricular end-diastolic pressure (RVEDP), left ventricular end-systolic pressure (LVESP), left ventricular end-diastolic pressure (LVEDP), and cardiac output (CO).

[2] = system: RAW 264.7 cells; assay: Transwell migration assay of monocytes/macrophages with laminin 421; format: cell-based; conditions: 100 nM, 24 h, laminin 421 1 μg/ml
Method: The effect on immune cell migration and invasion was investigated using N3 IgG antibody as a representative among the antibodies constructed in Example 1 above. Specific experimental methods were as follows. Transwell (Corning, #3421-5 mm) was coated with gelatin (0.5 mg/ml), and then RAW 264.7 cells (1×10^5 cells/well) were seeded in the top chamber. Serum-free DMEM (500 μl) containing laminin 421 (1 μg/ml) was placed in the bottom chamber. The top chamber was treated with each antibody at 100 nM. After 24 h, immobilization with 70% methanol was carried out for 30 min, and then staining with 50% hematoxylin was carried out for 30 min. The non-migrating cells present on the upper part of the membrane were removed by cotton swabs, and then the membrane was taken and mounted on the slide. The migrating cells present on the bottom surface of the membrane were observed by a high-resolution microscope (FIG. 20A), and the cells were counted on the obtained images and plotted on the graph (FIG. 20B).

B1: N3 IgG: IgG converted from N3 scFv; VH SEQ ID NO: 49, VL SEQ ID NO: 51; binds KRS N-terminal region (antibody, V domains shown)
VH: EVQLLESGGGLVQPGGSLRLSCAASGFTFSSYDMSWVRQAPGKGLEWVSAISYDNGNTYYADSVKGRFTISRDNSKNTLYLQMNSLRAEDTAVYYSARMALDFDYWGQGTLVTVSS
VL: QSVLTQPPSASGTPGQRVTISCTGSSSNIGSNYVTWYQQLPGTAPKLLIYDNSNRPSGVPDRFSGSKSGTSASLAISGLRSEDEADYYCASWDDSLSAYVFGGGTKLTVL
change in RVESP ([1]; 1 mpk and 10 mpk, PAH models): significantly reduced | CO ([1]; MCT + N3 Ab 1 mpk): 74.0 ± 0.9 mL/min | LVEDP ([1]; MCT + N3 Ab 1 mpk): 2.6 ± 1.9 mmHg | LVESP ([1]; MCT + N3 Ab 1 mpk): 95.8 ± 4.8 mmHg | RVEDP ([1]; MCT + N3 Ab 1 mpk): 1.4 ± 2.2 mmHg | RVESP ([1]; MCT + N3 Ab 1 mpk): 45.0 ± 8.1 mmHg | CO ([1]; MCT + N3 Ab 10 mpk): 59.8 ± 12.9 mL/min | LVEDP ([1]; MCT + N3 Ab 10 mpk): 4.6 ± 3.9 mmHg | LVESP ([1]; MCT + N3 Ab 10 mpk): 93.4 ± 11.3 mmHg | RVEDP ([1]; MCT + N3 Ab 10 mpk): 3.8 ± 1.3 mmHg | RVESP ([1]; MCT + N3 Ab 10 mpk): 41.2 ± 7.7 mmHg | change in LVESP ([1]; PAH models, antibody administered group): significantly increased | inhibition of LN421-dependent monocyte/macrophage migration [2]: effectively inhibited
